The record followed here is article PMC9064986.

The experiment concerns the target Recombinant human BMP10 growth factor (GF)-domain (R&D Systems) (UniProt O95393). The experiment can be described thus: SPR (Biacore). The note with it: BMP10 immobilised on a CM5 Biacore chip; parent: 1.35E+05 M-1s-1.

Chain of Recombinant human BMP10 growth factor (GF)-domain (R&D Systems) (O95393 317-424): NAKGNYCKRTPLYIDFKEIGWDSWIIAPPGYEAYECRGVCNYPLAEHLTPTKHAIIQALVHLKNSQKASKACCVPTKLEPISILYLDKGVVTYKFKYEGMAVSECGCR

Broadly, the kon is a measure of how fast the partners come together. “BMPRII extracellular domain (ECD), wild type (from UniProt Q13873-1) ΔGDP (del of Gly, Asp and Pro in the A-loop)”: the kon was 49600 M⁻¹ s⁻¹.
